Experimental data reported in publication PMC2657470 (Biochemical and biophysical research communications, 2009).
Read-outs that look alike come from different tables or passages of the source.

Tests used:
Phos15739 [1] = target: T1, Phos15739 (Drosophila melanogaster, UniProt Q9VYT0); assay type: biochemical, D. melanogaster; settings: for substrate quality for Phos15739 (in words): isoprenoid mono- and pyrophosphate substrates
Phos2680 = Phos2680 (Drosophila melanogaster, UniProt Q9W4W5); assay: In vitro inhibition of Phos2680, p-NPP as substrate
Phos15739 [2] = target: T1, Phos15739; assay: In vitro inhibition of Phos15739, p-NPP as substrate; settings: for inhibitor quality for Phos15739 (in words): p-NPP as substrate
Phos15739D28A = assay: Enzymatic activity of variant Phos15739D28A with p-NPP and FPP; assay type: biochemical, D. melanogaster; settings: same reaction conditions as positive control Phos15739; data not shown
[3] = tested on: N-terminal domain of hsEH; settings: FPP as substrate of N-terminal domain of hsEH; ref [8]; cited from earlier work
[4] = target: hsEH N-terminal phosphatase; settings: cited from earlier work
[5] = substrate: C=C(C)CCO[P@@](=O)(O)OP(=O)(O)O; assay: purified protein, by the assay type; assay type: biochemical, D. melanogaster; settings: other: substrate of Phos15739; IPP, GPP, FPP values are apparent kinetics
[6] = substrate: CC(C)=CCC/C(C)=C/CC/C(C)=C/COP(=O)(O)O; assay: purified protein, by the assay type; assay type: biochemical, D. melanogaster; settings: other: substrate of Phos15739; IPP, GPP, FPP values are apparent kinetics
[7] = substrate: CC(C)=CCC/C(C)=C/COP(=O)(O)O; assay: purified protein, by the assay type; assay type: biochemical, D. melanogaster; settings: other: substrate of Phos15739; IPP, GPP, FPP values are apparent kinetics
[8] = substrate: O=[N+]([O-])c1ccc(OP(=O)(O)O)cc1; assay: p-NPP phosphatase activity of Phos15739; assay type: biochemical, D. melanogaster; settings: other: p-NPP as substrate of Phos15739, pH 6.0, 2 mM Mg2+
[9] = substrate: C=C(C)CCOP(=O)(O)O; assay: purified protein, by the assay type
[10] = substrate: CC(C)=CCC/C(C)=C/CC/C(C)=C/CO[P@@](=O)(O)OP(=O)(O)O; assay: purified protein, by the assay type; settings: other: substrate of Phos15739; IPP, GPP, FPP values are apparent kinetics
[11] = substrate: O=[N+]([O-])c1ccc(OP(=O)(O)O)cc1; assay: p-NPP phosphatase activity of Phos2680; assay type: biochemical, D. melanogaster; settings: other: p-NPP as substrate of Phos2680, pH 6.0, 2 mM Mg2+
[12] = substrate of Phos15739, IPP, GPP, FPP values are apparent kinetics
[13] = other: substrate of Phos15739, IPP, GPP, FPP values are apparent kinetics

CC(C)=CCC/C(C)=C/COP(=O)(O)OP(=O)(O)O [GPP]
substrate quality for Phos15739 (in words) (Phos15739 [1]): weak substrates | Kcat (s^−1±S.E.) (Phos15739 [1]; [12]): 0.78 ± 0.09 s⁻¹ | Vmax (μmol.min^−1mg^−1±S.E.) (Phos15739 [1]; [12]): 1.4 ± 1.5 µmol/min/mg

CC(=O)N[C@@H](CSC/C=C(\C)CCC=C(C)C)C(=O)O [N-acetyl-S-geranyl-L-cysteine]
IC50 (Phos2680): > 100 µM | IC50 (Phos15739 [2]): 6.3 ± 1.7 µM

CC(C)=CCC/C(C)=C/CC/C(C)=C/COP(=O)(O)OP(=O)(O)O [FPP, farnesyl pyrophosphate]
enzymatic activity of Phos15739D28A with substrate (Phos15739D28A): No activity was detected | turnover number [3]: 0.25 ± 0.07 s⁻¹

CC(=O)N[C@@H](CSC/C=C(\C)CC/C=C(\C)CCC=C(C)C)C(=O)O [N-acetyl-S-farnesyl-L-cysteine]
IC50 ([4]; ref [8]): 0.84 µM | IC50 (Phos2680): > 100 µM | IC50 (Phos15739 [2]): 28 ± 6.8 µM

O=[N+]([O-])c1ccc(OP(=O)(O)O)cc1 [p-NPP, para-nitrophenyl phosphate]
enzymatic activity of Phos15739D28A with substrate (Phos15739D28A): No activity was detected

CC(C)=CCC/C(C)=C/CC/C(C)=C/CC/C(C)=C/COP(=O)(O)OP(=O)(O)O [GGPP, Geranylgeranyl pyrophosphate]
substrate quality for Phos15739 (in words) (Phos15739 [1]): not good substrates

CC(C)=CCC/C(C)=C/CC/C(C)=C/CSCC(=O)O [S-Farnesyl-thioacetic acid]
IC50 (Phos2680): 5.1 ± 1.4 µM | IC50 (Phos15739 [2]): > 100 µM | inhibitor quality for Phos15739 (in words) (Phos15739 [2]): poor inhibitors

C=C(C)CCOP(=O)(O)OP(=O)(O)O [IPP]
substrate quality for Phos15739 (in words) (Phos15739 [1]): weak substrates

CC(C)=CCC/C(C)=C/CC/C(C)=C/CC/C(C)=C/COP(=O)(O)O [GGMP]
substrate quality for Phos15739 (in words) (Phos15739 [1]): not good substrates

C[C@H](CCC(=O)NCCS(=O)(=O)O)[C@H]1CC[C@H]2[C@@H]3CC[C@@H]4C[C@H](OS(=O)(=O)O)CC[C@]4(C)[C@H]3CC[C@]12C [Taurolithocholic acid 3-sulfate, taurolithocholic acid 3-sulfate]
IC50 ([4]; ref [12]): 5 µM | IC50 (Phos2680): > 100 µM | IC50 (Phos15739 [2]): > 100 µM | inhibitor quality for Phos15739 (in words) (Phos15739 [2]): poor inhibitors

CC(=O)N[C@@H](CSC/C=C(\C)CC/C=C(\C)CC/C=C(\C)CCC=C(C)C)C(=O)O [N-acetyl-S-geranylgeranyl-L-cysteine]
IC50 (Phos2680): 14 ± 1.9 µM | IC50 (Phos15739 [2]): 4.4 ± 2 µM

B1: Phos15739 (Drosophila melanogaster) (protein)
chain: MAKPQHILQLSQEQRSSVVDSFDRVVSDIDGVLWTFEQSIPRAADGYAALEQMGKHLTFLTNNSVRTSEQCVKLFAKIGMQVHPEQIWHPAKSIVSYLQSIKFEGLIYIIASQSFKTVLREAGFQLLDGPNEFIEESYASLAEHIFGKEPVRAVIIDVDFNLTSPKILRAHLYLRHPECMLIEGATDRLLPVAKEVNIVGPGAFASILVEASGKQPITLGKPGRELGDLLVEHYQIVQPSRVLMIGDMLAQDVSFGRQCGFQTLLVLSGGCSKEELLAETDPQRIPDYYADSVADVAQMLGEAPKSRV
Km [5]: 430 ± 150 µM | Vmax [5]: 2.1 ± 0.39 µmol/min/mg | kcat [5]: 1.2 ± 0.22 s⁻¹ | kcat/Km [5]: 2700 M⁻¹ s⁻¹ | Km [6]: 160 ± 20 µM | Vmax [6]: 85 ± 4.2 µmol/min/mg | kcat [6]: 49 ± 2.4 s⁻¹ | kcat/Km [6]: 310000 M⁻¹ s⁻¹ | Km [7]: 81 ± 6.7 µM | Vmax [7]: 250 ± 9.3 µmol/min/mg | kcat [7]: 140 ± 5.3 s⁻¹ | kcat/Km [7]: 1.8e+06 M⁻¹ s⁻¹ | Km [8]: 240 µM | Vmax [8]: 6.1 µmol/min/mg | Km [9, 13]: 84 ± 27 µM | Vmax [9, 13]: 18 ± 2.7 µmol/min/mg | kcat [9, 13]: 10 ± 1.5 s⁻¹ | kcat/Km [9, 13]: 120000 M⁻¹ s⁻¹ | Km [10]: 48 ± 13 µM | Vmax [10]: 18 ± 1.8 µmol/min/mg | kcat [10]: 10 ± 1.04 s⁻¹ | kcat/Km [10]: 2.1 X 10^5 M^−1 s^−1

B2: Phos2680 (Drosophila melanogaster) (protein)
chain: MSPPRHILKLSLEEQRQFIDSFDLVISDCDGVVWLLVGWIPNTGAAVNALKAAGKQIKFVSNNSFRSEEDYMEKFRHIGAKNVQEDDIVHPVKTIVRYLKKHKPGERVYSLMSLEANETLRKHNIEFESLQVKEHLTAASLVDHLAIEKPVGAVLFDIHLDLSYVELAKAIRHLQENDDCQLIAGGSDVIMPLAENLNVAGFFDFLEHVKRYTQREATFLGKPSPILGEMFGEMFEIRDCKRCIFIGDTLVQDVQFGKACGFQSLLVLSGCLTKEDMLNAPVEAQPDYYADSLADFTQLLENIQK
Km [11]: 640 µM | Vmax [11]: 36 µmol/min/mg | Km ([9]; other: substrate of Phos2680): 35 µM | Vmax ([9]; other: substrate of Phos2680): 59 µmol/min/mg
